Measurements published in paper PMC4607269 (Cell, 2015).

Molecular target: His-xBuGZ (Xenopus, UniProt Q7ZXV8 1-452)
Assay: incorporation into His-xBuGZ droplets

B1: GFP-xBuGZ-B (domain or fragment, Xenopus, UniProt Q7ZXV8 258-334, looked up)
chain: SAGQAQAHISGPVGTDFKPLNNIPATTAEHPKPTFPAYTQSTMSTTSTTNSTASKPSTSITSKPATLTTTSATSKLV
binding result: binds

B2: GFP-xBuGZ-A (domain or fragment, Xenopus, UniProt Q7ZXV8 111-187, looked up)
chain: NQDDSDYDDDDDTAPSTSFQQMQTQQAFMPTMGQPGIPGLPGAPGMPPGITSLMPAVPPLISGIPHVMAGMHPHGMM
binding result: binds

B3: GFP-xBuGZ-C (domain or fragment, Xenopus, UniProt Q7ZXV8 376-452, looked up)
chain: GAMMAPRPGLPPQQHGMRHPLPPHGQYGAPLQGMAGYHPGTMPPFGQGPPMVPPFQGGPPRPLMGIRPPVMSQGGRY
binding result: binds

B4: YFP-tagged xBuGZ (Xenopus BuGZ) (natural protein)
chain: not shown
binding result: binds
